Patent US20260224618A1 (ORICELL THERAPEUTICS, published 2026)
Substitutions are numbered along the chain they refer to.

B1: MSLN46 VHH-Fc fusion protein (Fc fusion)
chain: QVQLQESGGGLVQAGGSLRLSCEASGHTDSYYPKAWFRQAPGKEREFVASIGWGGRMTAYADSVKGRFTVSRTYAKNTVYLQMNSLKPEDTAVYYCAAGIGWAPTADSGEYDYWGQGTQVTVSS
notes: Tested as bivalent VHH-Fc expressed in EXPI293; also called MSLN-VHH; MSLN nanobody 46; not shown: Fc of the VHH-Fc fusion
B2: MSLN52 VHH-Fc fusion protein (Fc fusion)
chain: B1 chain with R19S, E23A
notes: Tested as bivalent VHH-Fc expressed in EXPI293; also called MSLN-VHH; MSLN nanobody 52; not shown: Fc of the VHH-Fc fusion
B3: MSLN53 VHH-Fc fusion protein (Fc fusion)
chain: B1 chain with A14P, R19T
notes: Tested as bivalent VHH-Fc expressed in EXPI293; also called MLSN-53; MSLN-VHH; not shown: Fc of the VHH-Fc fusion
B4: positive control antibody P4 (antibody, V domains shown)
VH: QVQLQQSGPGLVTPSQTLSLTCAISGDSVSSNSATWNWIRQSPSRGLEWLGRTYYRSKWYNDYAVSVKSRMSINPDTSKNQFSLQLNSVTPEDTAVYYCARGMMTYYYGMDVWGQGTTVTVSS
VL: QPVLTQSSSLSASPGASASLTCTLRSGINVGPYRIYWYQQKPGSPPQYLLNYKSDSDKQQGSGVPSRFSGSKDASANAGVLLISGLRSEDEADYYCMIWHSSAAVFGGGTQLTVLS
notes: an AHC probe was used in the ForteBio assay; also called positive antibody P4
B5: MSLN48 VHH-Fc fusion protein (Fc fusion)
chain: QVQLQESGGGLVQPGGSLRLSCAASESIFSNYSASWYRQAPGKQRELVATIARTGSAFHLGSVKGRFTISRDNAKRTVYLQMNSLLPEDTAVYYCNVWDSWGQGTQVTVSS
notes: Tested as bivalent VHH-Fc expressed in EXPI293; also called MSLN-VHH; MSLN nanobody 48; not shown: Fc of the VHH-Fc fusion
B6: MSLN45 VHH-Fc fusion protein (Fc fusion)
chain: QVQLQESGGGLVQPGGSLRLSCAASGSIFSINAMGWYRQPPGKQRELVAATSWGGRTNYADSVEGRFTISRDNAKNTVYLQMNSLKPEDTAVYYCKLWDGSSWDIYWGQGTQVTVSS
notes: Tested as bivalent VHH-Fc expressed in EXPI293 and detected with anti-human IgG Fc; also called MSLN-VHH; MSLN nanobody 45; not shown: Fc of the VHH-Fc fusion
B7: MSLN47 VHH-Fc fusion protein (Fc fusion)
chain: B6 chain with P14A
notes: Tested as bivalent VHH-Fc expressed in EXPI293; also called MSLN-VHH; MSLN nanobody 47; not shown: Fc of the VHH-Fc fusion
B8: MSLN51 VHH-Fc fusion protein (Fc fusion)
chain: B6 chain with P14T
notes: Tested as bivalent VHH-Fc expressed in EXPI293; also called MSLN-VHH; MSLN nanobody 51; not shown: Fc of the VHH-Fc fusion
B9: MSLN55 VHH-Fc fusion protein (Fc fusion)
chain: B6 chain with P14S, R19K, S27N, F29A
notes: Tested as bivalent VHH-Fc expressed in EXPI293; also called MSLN-VHH; MSLN nanobody 55; not shown: Fc of the VHH-Fc fusion
B10: MSLN57 VHH-Fc fusion protein (Fc fusion)
chain: B6 chain with L11M
notes: Tested as bivalent VHH-Fc expressed in EXPI293; also called MSLN-VHH; MSLN nanobody 57; not shown: Fc of the VHH-Fc fusion
B11: MSLN58 VHH-Fc fusion protein (Fc fusion)
chain: B6 chain with L11T, A23E, S25V, S27D, I28S, F29V
notes: Tested as bivalent VHH-Fc expressed in EXPI293; also called MSLN-VHH; MSLN nanobody 58; not shown: Fc of the VHH-Fc fusion
B12: MSLN59 VHH-Fc fusion protein (Fc fusion)
chain: B6 chain with A23T, G26K, S27R, F29D
notes: Tested as bivalent VHH-Fc expressed in EXPI293; also called MSLN-VHH; MSLN nanobody 59; not shown: Fc of the VHH-Fc fusion
B13: MSLN50 VHH-Fc fusion protein (Fc fusion)
chain: QVQLQESGGGLVQPGGSLRLSCAASGSISKIAIMGWYRQPPGNERELIAIANMTGTGVYRDTVKGRFTIRRDNAKNMVYLQMNNLKSEDTGVYYCHARQLGVGSFESWGQGTQVTVSS
notes: Tested as bivalent VHH-Fc expressed in EXPI293; also called MSLN-VHH; MSLN nanobody 50; not shown: Fc of the VHH-Fc fusion

Target: T1, Human MSLN-His antigen (human, UniProt Q13421 296-580, limits assumed)
T1 construct: also called MSLN-his protein; human MSLN protein; not shown: His tag
Assay: BLI (ForteBio), AHC probe, nanobody at 100 nM, human MSLN-His 2-fold diluted from 100 nM
Description: MSLN nanobodies with flow cytometric binding activity were diluted to 100 nM and added into a 384-well plate. Human MSLN-His antigens were 2-fold diluted to 100 nM for a total of 7 gradients, and added into a 384-well plate. An AHC probe (Sartorius, Item No. 18-5060) was used, with the binding time set to 180 sec, the dissociation time to 360 sec, the baseline to 60 sec, and the regeneration cycle to three times, each for 5 sec. After then, the binding-dissociation curve was fitted using software to calculate the affinity of the antibodies.

T1 sequence (Q13421 other isoform, or with tags, fused parts or gaps limits assumed): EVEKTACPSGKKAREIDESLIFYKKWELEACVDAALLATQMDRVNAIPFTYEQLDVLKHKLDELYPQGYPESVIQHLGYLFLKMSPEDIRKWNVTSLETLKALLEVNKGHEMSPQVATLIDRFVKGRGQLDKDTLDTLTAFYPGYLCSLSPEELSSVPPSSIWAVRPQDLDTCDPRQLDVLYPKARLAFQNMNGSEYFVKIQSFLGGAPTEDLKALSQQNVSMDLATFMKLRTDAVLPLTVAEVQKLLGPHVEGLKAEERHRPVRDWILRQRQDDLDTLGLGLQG

Q: With B1 as the binder, how does the Kd read?
A: 2.15 nM

Q: Which Kd does the source give for B2 here?
A: 2.58 nM

Q: For B3, which Kd is on record?
A: 1.41 nM

Target: T1, Human MSLN-His antigen
Assay: ELISA, plate coated with 2 ug/ml MSLN-His, antibody diluted 2.5-fold from 200 nM, anti-human IgG Fc HRP, OD450
Description: (§1) A high-absorption 384-well plate was coated with 2 μg/ml of MSLN-His […], and left standing at 4° C. overnight. The plate was washed three times with 1×PBST, and blocked with 5% of skimmed milk at room temperature for 2 h. During the blocking, the antibody MSLN-VHH was diluted 2.5-fold starting from a concentration of 200 nM for a total of 11 gradients. At the end of blocking, the plate was washed three times with 1×PT, into which were added corresponding diluted primary antibodies at 30 μl/well and incubated with shaking at room temperature for 1 h. The plate was washed three times with 1×PBST, into which were then added secondary antibodies Anti-human IgG Fc Antibody HRP (abcam, Item No. ab99759) and incubated at room temperature for 30-60 min. The plate was washed seven times with 1×PBST, into which was then added a TMB developer, and 2M phosphoric acid was added 3-5 min later to stop the reaction. The absorbance was read at a wavelength of 450 nm.

Q: B4 was tested. Which “EC50 (read off the curve)” value did it give?
A: ~0.8 nM

Target: T1, Human MSLN-His antigen
Assay: ELISA, plate coated with 2 ug/ml MSLN-His, VHH-Fc diluted 2.5-fold from 200 nM, anti-human IgG Fc HRP, OD450
Description: as §1

Q: How did the “EC50 (read off the curve)” value turn out when B5 was run?
A: ~7 nM

Q: How did the “EC50 (read off the curve)” value turn out when B6 was run?
A: ~0.7 nM

Q: B7 was tested. Which “EC50 (read off the curve)” value did it give?
A: ~0.8 nM

Q: Which “EC50 (read off the curve)” value does the source give for B8 here?
A: ~0.8 nM

Q: Which “EC50 (read off the curve)” value does the source give for B9 here?
A: ~0.5 nM

Q: For B10, which “EC50 (read off the curve)” value is on record?
A: ~0.6 nM

Q: How did the “EC50 (read off the curve)” value turn out when B11 was run?
A: ~0.4 nM

Q: With B12 as the binder, how does the “EC50 (read off the curve)” value read?
A: ~0.5 nM

Q: Which “EC50 (read off the curve)” value does the source give for B1 here?
A: ~1 nM

Q: Which “EC50 (read off the curve)” value does the source give for B2 here?
A: ~1 nM

Q: For B3, which “EC50 (read off the curve)” value is on record?
A: ~0.8 nM

Q: B13 was tested. Which “EC50 (read off the curve)” value did it give?
A: ~10 nM
